In US20250186614A1, “COMPACT DRUG RESPONSIVE DOMAINS FOR REGULATION OF FUNCTION/ABUNDANCE AND DELIVERY OF POLYPEPTIDE PAYLOADS” (OBSIDIAN THERAPEUTICS, INC., priority 2022, published 2025):
Substitutions are numbered along the chain they refer to. In names and notes the source's numbering stands. Values belong to the molecule of their own block, whether it stands above or below them.

Tests used:
[1] = clinically approved dosages 0.1-0.3 mg/kg of body weight, tissue/organ transplants; cited from earlier work
Jurkat cells [2] = assay: Tacrolimus serum experiments: dose response of FKBP13 constructs under different serum concentrations, GFP MFI; format: cell-based; conditions: increasing FBS, FIGS. 51-54
Procedure: Incubation with increasing FBS results in 2 fold increase in Ec50 with 80% FBS.

FKBP13 = target: T1, FKBP13 (Homo sapiens, UniProt P26885); conditions: read-out: binding affinity for FKBP13; cited from earlier work
T1 sequence (P26885 22-142): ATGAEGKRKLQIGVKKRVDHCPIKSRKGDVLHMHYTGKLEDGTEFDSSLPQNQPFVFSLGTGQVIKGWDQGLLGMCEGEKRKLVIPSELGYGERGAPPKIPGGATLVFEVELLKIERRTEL

HEK293 cells = assay: Tacrolimus dose response of FKBP13 constructs transiently transfected into HEK293 cells, Celigo Image Cytometer; format: cell-based; conditions: for performance / drug responsiveness in tacrolimus dose response: FIGS. 5, 6, 8
Text: In another experiment, several FKBP13 DRD constructs were transiently transfected into HEK293 cells, as described above, and analyzed using a Celigo Image Cytometer (Nexcelom, Lawrence, MA).
To test the effects of other substitutions instead of methionine at residue number 54 and leucine at position 93 FKBP13 DRD constructs were generated and were transiently transfected into HEK293 cells, as described above, and analyzed using a Celigo Image Cytometer (Nexcelom, Lawrence, MA).
In another experiment, to explore the possibility of further truncating FKBP13, constructs (FKBP-044, FKBP-083, FKBP-084, FKBP-085, and FKBP-086) were transiently transfected into HEK293 cells, as described above, and analyzed using a Celigo Image Cytometer (Nexcelom, Lawrence, MA). A combination of DRD-genic M54A with truncation of the N-terminal histidine lowers basal (FKBP-083).
In another experiment, several constructs (FKBP-044, FKBP-092, FKBP-093, FKBP-094, FKBP-095, FKBP-096 and FKBP-097) designed to explore additional DRD-genic mutations were transiently transfected into HEK293 cells, as described above, and analyzed using a Celigo Image Cytometer (Nexcelom, Lawrence, MA).
Other constructs (FKBP-091, FKBP-098, FKBP-099, FKBP-100, and FKBP-101) were transiently transfected into HEK293 cells, as described above, and analyzed using a Celigo Image Cytometer (Nexcelom, Lawrence, MA).
(§1) In another experiment, several constructs (FKBP-091, FKBP-102, FKBP-103, FKBP-104, FKBP-105 and FKBP-106), designed to combine the binding site mutation identified in FKBP-091 with novel DRD-genic mutations, were transiently transfected into HEK293 cells, as described above, and analyzed using a Celigo Image Cytometer (Nexcelom, Lawrence, MA). […]
as §1, with “several other” for “several”, “FKBP-107, FKBP-108, FKBP-109, FKBP-110,” for “FKBP-102, FKBP-103, FKBP-104, FKBP-105”, “FKBP-111),” for “FKBP-106),”

HEK-293T cells = assay: Tacrolimus (FK506) response of FKBP13-AcGFP-mCherry constructs transiently transfected into HEK-293T cells, flow cytometry; format: cell-based
Text: The DRD in FKBP13-039 was a wildtype (WT) FKBP13 (i.e., a 98 amino acid fragment of SEQ ID NO: 1). […] The FKBP13-043, FKBP13-044, and FKBP13-045 constructs included DRD-genic mutations D90G, M54A and M96V, respectively, and three binding site mutations (Q72R, Q84E, and A117H).

Jurkat cells [3] = assay: Tacrolimus dose response of FKBP13-AcGFP-mCherry constructs stably transduced into Jurkat cells, GFP MFI by flow cytometry; format: cell-based
Outline: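 Jurkat E6-1 cells lentivirally transduced with FKBP13-AcGFP-mCherry constructs to 10-25% mCherry+ (day 5) were dosed with tacrolimus. GFP geometric MFI in mCherry+ cells was measured by flow cytometry and fitted to dose-response curves.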

Jurkat cells [4] = assay: Sirolimus (rapamycin) dose response of FKBP13 constructs stably transduced into Jurkat cells, flow cytometry; format: cell-based; conditions: rapamycin, Table 14
Procedure: Normalized EC50 values were calculated from the mCherry normalized GFP MFI values, which accounted for any differences in mCherry intensity between samples.

[5] = tacrolimus dose response, Jurkat cells stably transduced (FIG. 10), Table 5

Molecule: C=CC[C@@H]1/C=C(\C)C[C@H](C)C[C@H](OC)[C@H]2O[C@@](O)(C(=O)C(=O)N3CCCC[C@H]3C(=O)O[C@H](/C(C)=C/[C@@H]3CC[C@@H](O)[C@H](OC)C3)[C@H](C)[C@@H](O)CC1=O)[C@H](C)C[C@@H]2OC [Tacrolimus, tacrolimus]
Cmax [1]: 20 to 68 ng/mL | increase in Ec50 with 80% FBS (Jurkat cells [2]): 2 fold | Kd (FKBP13): 166 nM

B1: FKBP-083: FKBP13 trunc1 DRD Q72R, Q84E, A117H, M54A; SEQ ID NO: 33 (protein)
chain: CPIKSRKGDVLHAHYTGKLEDGTEFDSSLPRNQPFVFSLGTGEVIKGWDQGLLGMCEGEKRKLVIPSELGYGERGHPPKIPGGATLVFEVELLKIER
modifications: truncated (trunc1); Description of sequence: FKBP13-AcGFP-mCherry Fusion; Construct Name: FKBP-083; FKBP13 DRD in Construct : FKBP13 trunc1 (mutated to match FKBP12 active site - Q72R Q84E A117H) (DRD - M54A)
Basal (HEK293 cells; FIG. 7): lowers basal

B2: FKBP-044: FKBP13 DRD Q72R, Q84E, A117H, M54A; SEQ ID NO: 7 (protein)
chain: HCPIKSRKGDVLHAHYTGKLEDGTEFDSSLPRNQPFVFSLGTGEVIKGWDQGLLGMCEGEKRKLVIPSELGYGERGHPPKIPGGATLVFEVELLKIER
modifications: Description of sequence: FKBP13-AcGFP-mCherry Fusion; Construct Name: FKBP-044; FKBP13 DRD in Construct : FKBP13 (mutated to match FKBP12 active site - Q72R Q84E A117H) (DRD - M54A)
AcGFP stabilization / fluorescence signal in response to FK506 (HEK-293T cells; 0, 1 or 10 μM FK506, 24 hours, FIG. 1B): increased more effectively | Fold Change (HEK-293T cells; tacrolimus response of FKBP13 DRD-AcGFP construct, Table 3): 9.4 | Fold Change (Jurkat cells [3]; tacrolimus dose response, Jurkat cells stably transduced (FIG. 4), Table 4): 12.6 | Fold Change (Jurkat cells [3]; [5]): 11.805 | EC50 and fold-change characteristics (Jurkat cells [3]; tacrolimus top concentration 10 μM, 24 hr, FIG. 2): best EC50 and fold-change characteristics

EC90 (Jurkat cells [4]; read-out: Rapamycin EC90): 398 nM | EC90 (Jurkat cells [3]; read-out: Tacrolimus EC90, tacrolimus, Table 14): 111 nM
B3: FKBP-091: FKBP13 DRD Q72R, Q84E, A117W, M54A; SEQ ID NO: 41 (protein)
chain: B2 chain with H77W
modifications: Description of sequence: FKBP13-AcGFP-mCherry Fusion; Construct Name: FKBP-091; FKBP13 DRD in Construct : FKBP13 (mutated to match FKBP12 active site Q72R Q84E A117W) (DRD - M54A)
performance / drug responsiveness in tacrolimus dose response (HEK293 cells): superior drug responsiveness | Rapamycin FC (Jurkat cells [4]; fold change): 3.2 | EC90 (Jurkat cells [4]; normalized, read-out: Rapamycin EC90 (Norm)): 414 nM | EC90 (Jurkat cells [3]; read-out: Tacrolimus EC90 (Norm), tacrolimus, normalized, Table 14): 117 nM | Fold Change (Jurkat cells [3]; [5]): 12.36 | Fold Change (Jurkat cells [3]; tacrolimus, Jurkat cells stably transduced, Table 6): 11.29 | Tacrolimus FC (Jurkat cells [3]; tacrolimus, fold change, Table 14): 12.4

B4: FKBP-068: FKBP13 DRD Q72R, Q84E, A117H, M54S; SEQ ID NO: 24 (protein)
chain: B2 chain with A14S
modifications: Description of sequence: FKBP13-AcGFP-mCherry Fusion; Construct Name: FKBP-068; FKBP13 DRD in Construct : FKBP13 (mutated to match FKBP12 active site - Q72R Q84E A117H) (DRD - M54S)
performance / drug responsiveness in tacrolimus dose response (HEK293 cells): closest in performance to the original M54A substitution | Fold Change (Jurkat cells [3]; [5]): 43.62
